Where no end group is shown, it is not given here.
System: SBD of GRP78/BiP
Assay: GST pull-down with substrate binding domain (SBD) of GRP78/BiP
Conditions: 10 µg GST-GRP78(SBD), 500 µg (N-terminal peptide: 100 µg) lysate of HEK-293 cells expressing HA-tagged construct
Experimental: Expression of GST fusion proteins for GST-pull-down experiments were performed essentially as described previously.
Figure 1 Bag-1 proteins interact with the molecular chaperone GRP78/BiP. A. The Bag-1 family of proteins binds GRP78/BiP. GST pull-down assay was performed incubating 5 µg each of GST-fused Bag-1 proteins with 400 µg of 22Rv.1 cell lysate. Western blotting with a specific antibodiy against GRP78/BiP was used to detect the binding and an anti-GST antibody was used to determine the amount of bacterially purified protein employed in the assay. B. Bag-1 and GRP78 interact in vivo. GRP78 was immunoprecipitated with an anti-GRP78/BiP antibody or IgG as control in 22Rv.1 cells. Western blotting with an anti-Bag-1 and anti-GRP78 antibody was performed to determine GRP78-Bag-1 interaction. C. Bag-1 and GRP78/BiP show a perinuclear colocalization. Confocal microscopic analyses were carried out in 22Rv.1 cells that have been paraformaldehyde-fixed and stained with a Bag-1 antibody to detect Bag-1 (green channel) and a GRP78/BiP specific antibody to detect GRP78/BiP (red channel). The orange staining in the merge of the two channels indicates the degree of co-localization of the two proteins. All images (40X) were acquired with a Leica TCS SPE confocal microscope (Leica Microsystems; Scale bars indicate 25 µm). D. Diagrammatic representation of the domains of GRP78. E. Bag-1 binds to multiple sites on GRP78. GST-pull down assay performed incubating 500 µg lysate of HEK-293 cells transfected with an HA-tagged Bag-1 and 10 µg GST-fused GRP78 full length and its ATPase and substrate binding domain (SBD). Western blot analysis was carried out using an HA antibody to detect the Bag-1-tagged protein.
Figure 2 Identification of Bag-1 peptide interfering with the action of GRP78/BiP. […] Depicted in blue and red are the ubiquitin-like domain and the BAG domain respectively. B. Identification of the Bag-1 peptide binding to GRP78/BiP. GST-pull down assay performed incubating 500 µg lysates from HEK-293 cells transfected with the indicated Bag-1 constructs and 10 µg of GST-GRP78(SBD) or GST as control. Western blot analysis with an HA antibody to detected the Bag-1 mutants is shown. […] C. The Bag-1 68 amino acid peptide binds in vivo to GRP78. HEK 293 cells were co-transfected with pcDNA-HA-tagged Bag-1 peptide. […] Thereafter luciferase activity was measured. Results are expressed as percentage of refolding activity relative to non-heat-shocked cells and presented as bar charts of the average of three independent experiments ± SEM. *p<0.05. […]

| Molecule | interaction with SBD of GRP78/BiP | interaction with SBD of GRP78/BiP (listed as 68 amino acid sequence) | interaction with SBD of GRP78/BiP (listed as full length 68 amino acid peptide) |
| --- | --- | --- | --- |
| N-terminal peptide: N-terminal 40 residues of the Bag-1 peptide (Bag-1L 202–241) (TPLSALGIQDGCRVMLIGKKNSPQEEVELKKLKHLEKSVE; not fully specified) | interacted preferentially with the SBD |  |  |
| Bag-1: cochaperone Bag-1, HA-tagged (pcDNA3.1-HA-Bag-1), or endogenous (protein, left off: HA, end not stated, kept, cochaperone Bag-1, HA-tagged (pcDNA3.1-HA-Bag-1), or endogenous) TPLSALGIQDGCRVMLIGKKNSPQEEVELKKLKHLEKSVEKIADQLEELNKELTGIQQGFLPKDLQAE | interacted not only with the full length GRP78/BiP but also with its ATPase and SBD |  |  |
| Bag-1 peptide: internal sequence of 68 amino acids of Bag-1 (Bag1-L 202–269), HA-tagged, expressed from pcDNA3 (also: HA tag, end not given here) TPLSALGIQDGCRVMLIGKKNSPQEEVELKKLKHLEKSVEKIADQLEELNKELTGIQQGFLPKDLQAE |  | required for binding the SBD of GRP78/BiP | interacted with both the SBD and ATPase binding domains of GRP78 |
